# Results as given in the supplement of paper PMC7125110.
# ± gives the standard error. Fewer inactive variants are shown than the library holds.
# B1: glmS ribozyme (parent)
# chain: AUAAAAGCGCCAGAACUACAGAAAUGUAGUUGACGAGGAGGAGGUUUAUCGAAUUUUCGGCGGAUGCCUCCAAA
# How the values were obtained:
# Settings in all cases: with glucosamine-6-phosphate
# glucosamine-6-phosphate [1] = variants of: B1; test: self-cleavage kobs at 160 uM GlcN6P; higher = faster cleavage; RNA array
# How it was run: (§1)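 Barcoded ribozyme variants on sequenced MiSeq chips were transcribed in situ by E. coli RNA polymerase and followed at 37 °C through a hybridised Cy3 probe. Glucosamine-6-phosphate at 40 μM to 10 mM in HEPES/KCl/Mg(OAc)2 buffer was flowed in, and tiles were imaged over ~14 h. Signals were normalised to baseline and to non-cleaving reference variants, and per-tile medians were fit to one- or two-exponential decays to give kobs. Weighted Michaelis–Menten fits across concentrations gave kcat and KM.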
# glucosamine-6-phosphate [2] = variants of: B1; test: self-cleavage kobs at 640 uM GlcN6P; higher = faster cleavage; RNA array
# How it was run: as §1
# glucosamine-6-phosphate [3] = variants of: B1; test: self-cleavage kobs at 2500 uM GlcN6P; higher = faster cleavage; RNA array
# How it was run: as §1
# glucosamine-6-phosphate [4] = variants of: B1; test: self-cleavage kobs at 10000 uM GlcN6P; higher = faster cleavage; RNA array
# How it was run: as §1
Variant,self-cleavage kobs at 160 uM GlcN6P (glucosamine-6-phosphate [1]),self-cleavage kobs at 640 uM GlcN6P (glucosamine-6-phosphate [2]),self-cleavage kobs at 2500 uM GlcN6P (glucosamine-6-phosphate [3]),self-cleavage kobs at 10000 uM GlcN6P (glucosamine-6-phosphate [4])
G9A G32A G43C U56C C68U,< 1e-05 s⁻¹,< 1e-05 s⁻¹,< 1e-05 s⁻¹,
G9U C68G,< 1e-05 s⁻¹,,< 1e-05 s⁻¹,< 1e-05 s⁻¹
A12U A15G A36U,< 1e-05 s⁻¹,,,
G7C U47A,< 1e-05 s⁻¹,< 1e-05 s⁻¹,,< 1e-05 s⁻¹
U45G G51U,< 1e-05 s⁻¹,< 1e-05 s⁻¹,,< 1e-05 s⁻¹
G13A C50G,0.000122 ± 3.1e-05 s⁻¹,0.000253 ± 0.00011 s⁻¹,4.08e-05 ± 1.9e-05 s⁻¹,
C10G A12U U31A A33U G63A,< 1e-05 s⁻¹,,,
C11U C61A C67G,7.27e-05 ± 2.3e-05 s⁻¹,8.2e-05 ± 3.6e-05 s⁻¹,7.14e-05 ± 3.3e-05 s⁻¹,
G9A G32C C67U,< 1e-05 s⁻¹,< 1e-05 s⁻¹,,
C16A G41A U56G,< 1e-05 s⁻¹,< 1e-05 s⁻¹,,
A33U G63C,< 1e-05 s⁻¹,< 1e-05 s⁻¹,< 1e-05 s⁻¹,< 1e-05 s⁻¹
G7A A36G,< 1e-05 s⁻¹,< 1e-05 s⁻¹,< 1e-05 s⁻¹,
G7U A36U C71A,< 1e-05 s⁻¹,,,
U49G G51U,< 1e-05 s⁻¹,< 1e-05 s⁻¹,< 1e-05 s⁻¹,< 1e-05 s⁻¹
G9A C10U,< 1e-05 s⁻¹,< 1e-05 s⁻¹,< 1e-05 s⁻¹,< 1e-05 s⁻¹
A15C U57C G62C,< 1e-05 s⁻¹,< 1e-05 s⁻¹,,
A15U G32U A36G G43U U65A C67U,< 1e-05 s⁻¹,< 1e-05 s⁻¹,,
C10A G35C C67U,< 1e-05 s⁻¹,,< 1e-05 s⁻¹,
A6C G40U C61A,< 1e-05 s⁻¹,,< 1e-05 s⁻¹,< 1e-05 s⁻¹
A12U U46C C67A,0.00011 ± 2.6e-05 s⁻¹,,0.00113 ± 0.0002 s⁻¹,
C16U A39C A48U,< 1e-05 s⁻¹,,,
G41A C68U C70U,0.000155 ± 3.4e-05 s⁻¹,0.00049 ± 8.2e-05 s⁻¹,0.00138 ± 0.00025 s⁻¹,
C8U C34G G41A,< 1e-05 s⁻¹,< 1e-05 s⁻¹,,
G29C A36U G43C,< 1e-05 s⁻¹,< 1e-05 s⁻¹,,
C10A U30A,< 1e-05 s⁻¹,< 1e-05 s⁻¹,< 1e-05 s⁻¹,< 1e-05 s⁻¹
G7U C10U G35A C68G,0.000125 ± 5.5e-05 s⁻¹,,,0.000284 ± 0.00012 s⁻¹
